Measurements from publication PMC7954794, “Protein context shapes the specificity of SH3 domain-mediated interactions in vivo” (Nature Communications, 2021).

Assays:
Abp1 PPIs = experiment: DHFR-PCA of Abp1 SH3-swapped baits (Fig. 2B-D, S2C, S2F); type: cell-based, Saccharomyces cerevisiae; settings: number of interactions of Abp1 carrying the named SH3; sheet FigS2A-B
Description: Having determined that multiple PPIs require SH3s, we asked whether the latter establish PPI specificity independently from their host proteins by swapping domains (Fig. 2A). Using the second round of genome editing, we individually replaced Abp1 SH3 with the 27 yeast SH3s and 3 human Abp1 orthologs’ SH3s (CTTN, HCLS1, and DBNL, Fig. 2B). The reintroduction of its own SH3 (Abp1SH3 in Abp1) reconstitutes almost perfectly Abp1’s interaction profile (Kendall’s τ = 0.93, Fig. 2B). […] No homologous SH3 domain fully re-establishes the normal Abp1 PPI profile (Fig. 2B and Supplementary Fig. 2C). However, we observe a significant correlation (cophenetic correlation = 0.20, p value = 0.005, Fig. 2C) between the similarity of PPI profiles (Fig. 2B) and the sequence similarity of the SH3s. […] Nonetheless, a subset of SH3-dependent PPIs is only observed with the endogenous domain. For instance, Hua2 and App1, both well-characterized partners of Abp1[14],[18],[19], are only detected when Abp1 contains its own SH3 (WT or swapped via editing). A given SH3 may therefore not be fully replaceable with other paralogous or orthologous domains. This pattern is confirmed by cellular growth phenotypic analyses (Supplementary Fig. 2D, E). PPIs, SH3 sequence similarity, and growth profiles under stress conditions are correlated (Supplementary Fig. 2D, E). This relationship is particularly clear when analyzing growth on media supplemented with hygromycin.
The stuffing of YSC84 SH3 rendered the strain sterile and was therefore not used for this study as the assays require crosses. For genes containing two SH3s (BZZ1 and BEM1), a combination of this first stuffer with a second one ([…]) coding for a highly similar linker ([…]) was used, which allowed targeting each SH3 position independently. The two N-terminal domains of SLA1, which are separated by six nucleotides, were stuffed by a single stuffer. Cells containing pCAS were selected via the G418 resistance cassette from the plasmid on YPD plates (YPD + NAT 100 μg/ml (DHFR F[1,2] selection) + G418 200 µg/mL (Bioshop Canada)). Colonies were randomly selected and grown in YPD media without G418 to allow plasmid loss. The correct insertion of the stuffer was validated by PCR and Sanger sequencing. The SH3-swapped, -shuffled, and -mutated strains were constructed following a second CRISPR–Cas9 editing step with the same procedures. The stuffer sequences were targeted by specific gRNAs (one gRNA per stuffer) and replaced by PCR amplified specific SH3 (with 40 bp homology arms) or libraries of mutated SH3 domains for Deep Mutational Scanning (DMS) with 78 bp flanking homology regions. Validation of the SH3 domain insertions was done as we previously described except for DMS libraries (see below).
The overall DHFR-PCA pipeline is based on Tarassov et al.[43] and the procedures have also been published as a visualized protocol. The screens were performed with robotically manipulated pin tools (BM5-SC1, S&P Robotics Inc.). First, the preys were cherry-picked from 96-well plates to omnitrays in a 384 format on YPD + HPH solid media. Plates were then combined into the 1536 format on YPD + HPH. The array was constituted of 575 preys previously shown to interact physically with at least one SH3-containing protein as reported in BioGRID V3.4.16 along with 40 negative controls. The prey array comprised a border of control strains of two rows and two columns corresponding to the PPI between LSM8-DHFR F[1,2] and CDC39-DHFR F[3]. This double border was used to remove border effects. Preys are present in duplicate at a randomized position in the 1536 array (except for YAL041W which is present four times per array). Baits were crossed with two prey plates, resulting in four independent bait–prey tests for each PPI. Baits were grown in liquid YPD + NAT and then transferred on solid YPD + NAT omnitrays. They were then replicated on YPD + NAT omnitrays in 1536 array format. […]

Abp1 (1xFLAG) = experiment: Western blot expression level of Abp1 SH3-swapped baits (Fig. S2A-B); type: cell-based, Saccharomyces cerevisiae; parameters: Flag (2 bands): unit not given here; settings: sheet FigS2A-B; for Ratio Swap/WT Flag: Flag signal relative to Abp1 WT (Abp1-1 to Abp1-4 = 1); for Flag (2 bands): Western blot Flag signal (2 bands), Abp1 WT, SH3-deleted or SH3-swapped
Experimental: Precultures of yeast cells expressing baits fused with the DHFR F[1,2]-FLAG were grown overnight at 30 °C with agitation in synthetic complete medium. The next day, cells were expanded in synthetic complete medium to reach their exponential phase (OD600 of around 1.0), pelleted, and frozen at −80 °C. The equivalent of fifty OD600 of cells was resuspended in ice-cold yeast lysis buffer (10 mM Tris-HCl pH 7.4, 150 mM NaCl, 0.5 mM EDTA (Millipore Sigma), 1% Triton X-100 (Millipore Sigma), and one cOmplete Mini Protease Inhibitor Cocktail (Millipore Sigma) per 10 mL) with […] glass beads (Millipore Sigma) and disrupted at 4 °C by 10 cycles of 2 min vortexing and 2 min cooldown. The equivalent of […] of lysed cells was used for the immunoprecipitation of the bait proteins using FLAG-M2 agarose beads (Millipore Sigma). The beads were incubated with the cell lysates for 120 min at 4 °C with a slow rotation, followed by three washes with the yeast lysis buffer.
Protein extracts and affinity-purified baits from yeast and human lysed cells were migrated on 10% polyacrylamide gels. The separated proteins were then transferred to nitrocellulose membranes. Validation of correct protein loading was done with ponceau staining of the membranes. Before the primary antibody incubations, membranes were blocked in 5% milk. Protein signals were detected on an Amersham Imager 600RGB (GE Healthcare) following the incubation of the membranes with the appropriate HRP-conjugated secondary antibodies and the Clarity Western ECL Substrate (Bio-Rad). The antibodies used in this study are M2-HRP (A8592, Sigma, 1/50,000), rabbit anti-FLAG (F7425, Sigma, 1/1000), PAK (SC-881, Santa Cruz, 1/200), p130cas/BCAR1 (SC-860, Santa Cruz, 1/200), actin (Cell Signaling Technology, 1/2000), anti-mouse HRP (Cell Signaling Technology, 1/10,000) and anti-rabbit HRP (Cell Signaling Technology, 1/10,000). The quantification of the WB signals was performed with the Amersham Imager 600 analysis software (GE Healthcare).

B1: Myo5 (protein, UniProt Q04439 1-1219, looked up)
Myosin-5: MAILKRGARKKVHQEPAKRSANIKKATFDSSKKKEVGVSDLTLLSKISDEAINENLKKRFLNATIYTYIGHVLISVNPFRDLGIYTDAVMNEYKGKNRLEVPPHVFAIAESMYYNMKSYNENQCVIISGESGAGKTEAAKRIMQYIAAASSTHTESIGKIKDMVLATNPLLESFGCAKTLRNNNSSRHGKYLEIKFNNQFEPCAGNITNYLLEKQRVVSQIKNERNFHIFYQFTKGASDAYRQTFGVQKPEQYVYTAAAGCISAETIDDLQDYQETLKAMRVIGLGQEEQDQIFRMLAAILWIGNVSFIENEEGNAQVRDTSVTDFVAYLLQIDSQLLIKSLVERIMETNHGMKRGSVYHVPLNIVQADAVRDALAKAIYNNLFDWIVSRVNKSLQAFPGAEKSIGILDIYGFEIFEHNSFEQICINYVNEKLQQIFIQLTLKSEQETYEREKIQWTPIKYFDNKVVCDLIEARRPPGIFAAMNDSVATAHADSNAADQAFAQRLNLFTTNPHFDLRSNKFVIKHYAGDVTYDIDGITDKNKDQLQKDLVELIGTTTNTFLATIFPDTVDRESKRRPPTAGDKIIKSANDLVETLSKAQPSYIRTIKPNETKSPNDYDDRQVLHQIKYLGLQENVRIRRAGFAYRQVFEKFVERFYLLSPHCSYAGDYTWQGDTLDAVKYILQDSSIPQQEYQLGVTSVFIKTPETLFALEHMRDRYWHNMAARIQRAWRRFLQRRIDAATKIQRTIRERKEGNKYEKLRDYGTKVLGGRKERRSMSLLGYRAFMGDYLSCNESKSKGAYIKRQVSIKEKVIFSIHGEALHTKFGRSAQRLKKTFLLTPTTLYIVGQTLVQNAMTYTQDYKIDVRNIQAVSLTNLQDDWVAIKLASSGQPDPLINTYFKTELITHLKRLNDKIQIKIGSAIEYQKKPGKLHSVKCQINESAPKYGDIYKSSTISVRRGNPPNSQVHKKPRKKSSISSGYHASSSQATRRPVSIAAAQHVPTAPASRHSKKPAPPPPGMQNKAATRRSVPNPASTLTASQSNARPSPPTAATRATPAATPAAAAMGSGRQANIPPPPPPPPPSSKPKEPMFEAAYDFPGSGSPSELPLKKGDVIYITREEPSGWSLGKLLDGSKEGWVPTAYMKPHSGNNNIPTPPQNRDVPKPVLNSVQHDNTSANVIPAAAQASLGDGLANALAARANKMRLESDDEEANEDEEEDDW
Which “Interactions in Abp1” value (Abp1 PPIs) does the source give for B1 here?
Its value is 100.

And the “Ratio Swap/WT Flag” value (Abp1 (1xFLAG))?
Its value is 0.7689.

What about the “Flag (2 bands)” value (Abp1 (1xFLAG)) of the same molecule?
The value was 82124.

B2: Lsb1 (protein, UniProt P53281 2-241, looked up)
LAS seventeen-binding protein …: SASLVNRSLKNIRNELEFLKESNVISGDIFELINSKLPEKWDGNQRSPQNADTEEYVEALYDFEAQQDGDLSLKTGDKIQVLEKISPDWYRGKSNNKIGIFPANYVKPAFTRSASPKSAEAASSSTVSRPSVPPPSYEPAASQYPSQQVSAPYAPPAGYMQAPPPQQQQAPLPYPPPFTNYYQQPQQQYAPPSQQAPVEAQPQQSSGASSAFKSFGSKLGNAAIFGAGSAIGSDIVNSIF
What does the source list for B2?
Interactions in Abp1 (Abp1 PPIs): 106; Ratio Swap/WT Flag (Abp1 (1xFLAG)): 0.4741; Flag (2 bands) (Abp1 (1xFLAG)): 50638

B3: Hof1 (protein, UniProt Q05080 1-669, looked up)
Cytokinesis protein 2: MSYSYEACFWDPNDNGVNILLGHISQGIRSCDSMILFFKQRSELEKDYARRLGAITGKLDKDIGTNMDYGKLNETFNVVLSVEKARAQSHSKQSEILFRQIYTDTKAFAANLQARYTTLSGKIERLRMDKFNKKKGCEVLQKKLQDAQIRFRDLQLNENNMIGAKRVEHNKRELLKWESNSQEYKVQLDVLKQEYKASQKFWIHEWAQLSCELQEMENARISFLQSKLQQFATSSMETYILEQTKMDMLTNHLNSFTAADEISTFSKENGTGRLKHKTSKGDMNSSANWAQMSSISTTSKKTESYMDNIRKLSSQLKETENKRKLASIDKYEKPLPSPEVTMATQFRNSTPVIRNETKVVANPTLSLRSSPVQLQSNVDDSVLRQKPDKPRPIVGEEQLKPDEDSKNPDEKGLMVHKRNQSLSSPSESSSSNPTDFSHIKKRQSMESMTTSVSSMANSIDDSQRFAKSWNSSNRKRKSMSHLQVPSSASSRSDDGGRTPNSAHNLNEDDYNTRRDTSTSTILFKPPVAVRGTSRGHTHRQSMIMQDSSNPIEDALYEMERIQSSSKPGTKTGNIMDERGVVRDRGITVTLPIVTSEGFPVIEYAKAMYPLIGNEAPGLANFHKGDYLLITEIVNKDWYKGEVYDNDRIDRNHRIGLIPYNFIQLLHQGL
B3 was tested. Which “Interactions in Abp1” value (Abp1 PPIs) did it give?
Its value is 15.

And the “Ratio Swap/WT Flag” value (Abp1 (1xFLAG))?
Its value is 1.051.

And the “Flag (2 bands)” value (Abp1 (1xFLAG))?
The value was 112286.

B4: Hse1 (protein, UniProt P38753 2-452, looked up)
Class E vacuolar …: SSSAIKIRNALLKATDPKLRSDNWQYILDVCDLVKEDPEDNGQEVMSLIEKRLEQQDANVILRTLSLTVSLAENCGSRLRQEISSKNFTSLLYALIESHSVHITLKKAVTDVVKQLSDSFKDDPSLRAMGDLYDKIKRKAPYLVQPNVPEKHNMSTQADNSDDEELQKALKMSLFEYEKQKKLQEQEKESAEVLPQQQQQHQQQNQAPAHKIPAQTVVRRVRALYDLTTNEPDELSFRKGDVITVLEQVYRDWWKGALRGNMGIFPLNYVTPIVEPSKEEIEKEKNKEAIVFSQKTTIDQLHNSLNAASKTGNSNEVLQDPHIGDMYGSVTPLRPQVTRMLGKYAKEKEDMLSLRQVLANAERSYNQLMDRAANAHISPPVPGPALYAGMTHANNTPVMPPQRQSYQSNEYSPYPSNLPIQHPTNSANNTPQYGYDLGYSVVSQPPPGYEQ
B4 was tested. Which “Interactions in Abp1” value (Abp1 PPIs) did it give?
The value was 77.

And the “Ratio Swap/WT Flag” value (Abp1 (1xFLAG))?
Its value is 0.5073.

What about the “Flag (2 bands)” value (Abp1 (1xFLAG)) of the same molecule?
Its value is 54180.

B5: Lsb3 (protein)
chain: MGINNPIPRSLKSETKKAAKILASFVKPNQVFGADQVIPPDVLKRAKGLAIITILKAGFLFSGRAGSGVIVARLKDGTWSAPSAIAMAGAGAGGMVGIELTDFVFILNTQDAVKSFSEFGTITLGGNVSVSAGPLGRSAEAAASASAGGVAAVFAYSKSKGLFAGVSVEGSAIIERREANRKFYGDNCTAKMILSGRIRPPPAVDPLFRVLESRAFNYRPSNGGRGSFDDDEDDYYDDDDYYNDIPSSFSSTDASSTRPNTRSTRRRAQSGSRYTFDDDDDDDDYGTGYSRNSRLAPTNSGGSGGKLDDPSGASSYYASHRRSGTAQSRARSSRNRWADDEYDDYDDDYESGYRRGNGRDRTKDREVDDLSNRFSKSRISSASTPQTSQGRFTAPTSPSTSSPKAVALYSFAGEESGDLPFRKGDVITILKKSDSQNDWWTGRVNGREGIFPANYVELV
modifications: left off: DHFR F[3], C-terminal, kept
Which results are given for B5?
Interactions in Abp1 (Abp1 PPIs): 107; Ratio Swap/WT Flag (Abp1 (1xFLAG)): 0.537; Flag (2 bands) (Abp1 (1xFLAG)): 57357
